Source: paper PMC8583203, “DisA Restrains the Processing and Cleavage of Reversed Replication Forks by the RuvAB-RecU Resolvasome”

Experiments:
DisA [1] = molecular target: T1, DisA (Bacillus subtilis, UniProt P37573 1-360); experiment: EMSA; conditions: 10 mM Mg2+; 0.2% glutaraldehyde; 50 mM Tris-HCl pH 7.5, 50 mM NaCl, 1 mM DTT, 0.05 mg/mL BSA, 5% glycerol, 1 or 10 mM MgCl2 or 5 mM EDTA, 15 min 37 C, 0.2 nM DNA; 0.2% glutaraldehyde before 6% …
T1 sequence: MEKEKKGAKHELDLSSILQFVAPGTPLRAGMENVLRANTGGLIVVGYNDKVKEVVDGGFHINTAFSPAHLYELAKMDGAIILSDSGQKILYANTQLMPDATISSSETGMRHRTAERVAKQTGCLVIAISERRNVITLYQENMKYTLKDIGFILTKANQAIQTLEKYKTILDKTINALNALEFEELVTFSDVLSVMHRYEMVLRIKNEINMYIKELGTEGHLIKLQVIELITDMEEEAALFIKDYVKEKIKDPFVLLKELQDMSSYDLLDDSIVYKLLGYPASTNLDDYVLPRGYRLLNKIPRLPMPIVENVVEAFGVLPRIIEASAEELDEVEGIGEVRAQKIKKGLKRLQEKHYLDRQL

DisA [2] = molecular target: T1, DisA; experiment: EMSA; 10 mM Mg2+; 0.2% glutaraldehyde; 50 mM Tris-HCl pH 7.5, 50 mM NaCl, 1 mM DTT, 0.05 mg/mL BSA, 5% glycerol, 1 or 10 mM MgCl2 or 5 mM EDTA, 15 min 37 C, 0.2 nM DNA; 0.2% glutaraldehyde before 6%; conditions: protein: recombinant, chain copies: 8, label: 32P (5' by gamma-32P)
DisA;RuvA;RuvB = molecular target: T2, DisA;RuvA;RuvB (Bacillus subtilis;Bacillus …, UniProt P37573;O05392;O32055 1-360;1-201;1-334, ||); experiment: DNase I footprinting; 10 mM Mg2+; 5 mM ATPgS; either order of addition; 50 mM Tris-HCl pH 7.5, 50 mM NaCl, 1 mM DTT, 0.05 mg/mL BSA, 5% glycerol, 1 or 10 mM MgCl2 or 5 mM EDTA, 15 min 37 C, 0.2 nM DNA; 0.2% glutaraldehyde before 6%; conditions: protein: recombinant;recombinant;native; tags: ;;; label: 32P (5' by gamma-32P); four-way junction
T2 sequence 1: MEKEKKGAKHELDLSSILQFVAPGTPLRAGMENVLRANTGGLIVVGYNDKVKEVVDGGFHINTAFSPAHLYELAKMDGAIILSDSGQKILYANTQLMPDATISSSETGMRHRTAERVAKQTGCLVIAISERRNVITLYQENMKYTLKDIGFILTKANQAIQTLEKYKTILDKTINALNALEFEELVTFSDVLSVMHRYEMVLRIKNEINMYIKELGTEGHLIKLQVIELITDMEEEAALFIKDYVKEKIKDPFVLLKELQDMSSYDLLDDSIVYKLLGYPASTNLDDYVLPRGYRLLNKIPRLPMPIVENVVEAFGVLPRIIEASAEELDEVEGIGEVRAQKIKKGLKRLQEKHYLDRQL
T2 sequence 2: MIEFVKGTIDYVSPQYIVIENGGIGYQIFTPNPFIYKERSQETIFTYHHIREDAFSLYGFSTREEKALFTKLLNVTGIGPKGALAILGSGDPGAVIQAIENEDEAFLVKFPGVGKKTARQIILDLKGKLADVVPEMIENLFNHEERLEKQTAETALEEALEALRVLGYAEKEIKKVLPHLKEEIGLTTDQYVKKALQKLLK
T2 sequence 3: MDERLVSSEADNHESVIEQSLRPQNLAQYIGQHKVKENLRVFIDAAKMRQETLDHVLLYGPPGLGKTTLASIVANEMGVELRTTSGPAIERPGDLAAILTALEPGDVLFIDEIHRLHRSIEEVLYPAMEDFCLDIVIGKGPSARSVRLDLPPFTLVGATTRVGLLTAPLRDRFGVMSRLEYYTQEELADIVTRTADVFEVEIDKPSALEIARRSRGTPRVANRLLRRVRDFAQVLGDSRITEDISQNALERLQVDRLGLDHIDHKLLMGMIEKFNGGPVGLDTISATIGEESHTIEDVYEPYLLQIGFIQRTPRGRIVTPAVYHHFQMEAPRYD

RuvA;RuvB = molecular target: T3, RuvA;RuvB (Bacillus subtilis;Bacillus subtilis, UniProt O05392;O32055 1-201;1-334, |); experiment: DNase I footprinting; 10 mM Mg2+; 5 mM ATPgS; ~40-nt footprint; 50 mM Tris-HCl pH 7.5, 50 mM NaCl, 1 mM DTT, 0.05 mg/mL BSA, 5% glycerol, 1 or 10 mM MgCl2 or 5 mM EDTA, 15 min 37 C, 0.2 nM DNA; 0.2% glutaraldehyde before 6%; conditions: protein: recombinant;native; tags: ;; chain copies: 8;12; label: 32P (5' by gamma-32P); four-way junction
T3 sequence 1: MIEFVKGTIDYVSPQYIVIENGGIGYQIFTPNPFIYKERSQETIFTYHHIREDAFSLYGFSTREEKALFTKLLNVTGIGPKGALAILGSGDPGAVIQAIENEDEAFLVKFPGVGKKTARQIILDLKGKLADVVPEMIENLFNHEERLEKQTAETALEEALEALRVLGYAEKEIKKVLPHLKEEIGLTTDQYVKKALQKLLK
T3 sequence 2: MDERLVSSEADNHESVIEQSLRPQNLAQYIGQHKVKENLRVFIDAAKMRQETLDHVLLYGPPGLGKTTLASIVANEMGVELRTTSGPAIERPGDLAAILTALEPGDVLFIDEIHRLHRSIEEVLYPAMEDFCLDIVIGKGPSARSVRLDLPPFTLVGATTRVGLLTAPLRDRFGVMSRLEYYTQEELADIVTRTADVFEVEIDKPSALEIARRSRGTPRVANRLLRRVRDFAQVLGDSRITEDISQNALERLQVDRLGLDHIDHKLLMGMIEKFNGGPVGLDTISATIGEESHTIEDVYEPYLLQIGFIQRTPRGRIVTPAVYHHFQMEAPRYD

DisA;RecU = molecular target: T4, DisA;RecU (Bacillus subtilis;Bacillus subtilis, UniProt P37573;P39792 1-360;1-206, |); experiment: DNase I footprinting; preformed at 1 mM Mg2+, then 10 mM Mg2+; coexistence judged likely; 50 mM Tris-HCl pH 7.5, 50 mM NaCl, 1 mM DTT, 0.05 mg/mL BSA, 5% glycerol, 1 or 10 mM MgCl2 or 5 mM EDTA, 15 min 37 C, 0.2 nM DNA; 0.2% glutaraldehyde before 6%; conditions: protein: recombinant;recombinant; tags: ;; chain copies: 8;2; label: 32P (5' by gamma-32P); four-way junction
T4 sequence 1: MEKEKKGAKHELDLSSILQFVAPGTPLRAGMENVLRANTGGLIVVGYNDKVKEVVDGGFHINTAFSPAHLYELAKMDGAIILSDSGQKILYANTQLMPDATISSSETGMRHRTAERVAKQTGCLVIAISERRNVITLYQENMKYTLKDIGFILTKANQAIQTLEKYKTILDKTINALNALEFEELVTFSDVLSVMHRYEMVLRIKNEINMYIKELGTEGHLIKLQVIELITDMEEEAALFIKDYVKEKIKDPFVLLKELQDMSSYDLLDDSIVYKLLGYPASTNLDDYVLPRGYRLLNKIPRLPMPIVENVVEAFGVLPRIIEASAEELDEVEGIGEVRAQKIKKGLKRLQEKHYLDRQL
T4 sequence 2: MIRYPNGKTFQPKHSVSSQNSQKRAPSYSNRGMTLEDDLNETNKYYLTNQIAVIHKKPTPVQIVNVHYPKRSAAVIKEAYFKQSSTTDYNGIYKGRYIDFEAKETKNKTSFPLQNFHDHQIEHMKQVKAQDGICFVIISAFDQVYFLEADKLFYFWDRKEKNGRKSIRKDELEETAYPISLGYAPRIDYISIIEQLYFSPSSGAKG

RuvA = molecular target: T5, RuvA (Bacillus subtilis, UniProt O05392 1-201); experiment: EMSA; 1 mM Mg2+; 50 mM Tris-HCl pH 7.5, 50 mM NaCl, 1 mM DTT, 0.05 mg/mL BSA, 5% glycerol, 1 or 10 mM MgCl2 or 5 mM EDTA, 15 min 37 C, 0.2 nM DNA; 0.2% glutaraldehyde before 6%; conditions: protein: recombinant; chain copies: 8; label: 32P (5' by gamma-32P); four-way junction
T5 sequence: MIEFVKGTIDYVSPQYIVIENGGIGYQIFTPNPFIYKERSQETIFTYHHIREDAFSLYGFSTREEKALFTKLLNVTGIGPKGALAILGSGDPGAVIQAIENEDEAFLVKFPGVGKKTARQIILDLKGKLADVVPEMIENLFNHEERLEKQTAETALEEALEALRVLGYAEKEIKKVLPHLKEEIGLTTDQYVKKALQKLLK

RecU = molecular target: T6, RecU (Bacillus subtilis, UniProt P39792 1-206); experiment: as above; conditions: protein: recombinant; chain copies: 2; label: 32P (5' by gamma-32P); four-way junction
T6 sequence: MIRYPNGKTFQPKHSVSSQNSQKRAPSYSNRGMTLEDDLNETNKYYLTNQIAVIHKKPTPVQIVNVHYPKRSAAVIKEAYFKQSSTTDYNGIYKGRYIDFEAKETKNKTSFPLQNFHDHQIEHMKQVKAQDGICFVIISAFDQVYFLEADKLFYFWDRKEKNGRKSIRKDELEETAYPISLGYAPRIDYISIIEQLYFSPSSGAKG

DisA [3] = molecular target: T1, DisA; experiment: EMSA; 10 mM Mg2+; 500 uM ATP; 50 mM Tris-HCl pH 7.5, 50 mM NaCl, 1 mM DTT, 0.05 mg/mL BSA, 5% glycerol, 1 or 10 mM MgCl2 or 5 mM EDTA, 15 min 37 C, 0.2 nM DNA; 0.2% glutaraldehyde before 6%; conditions: protein: recombinant; chain copies: 8; label: 32P (5' by gamma-32P); four-way junction
DisA;RuvA = molecular target: T7, DisA;RuvA (Bacillus subtilis;Bacillus subtilis, UniProt P37573;O05392 1-360;1-201, |); experiment: EMSA; 1 mM Mg2+; new R+A complex; 50 mM Tris-HCl pH 7.5, 50 mM NaCl, 1 mM DTT, 0.05 mg/mL BSA, 5% glycerol, 1 or 10 mM MgCl2 or 5 mM EDTA, 15 min 37 C, 0.2 nM DNA; 0.2% glutaraldehyde before 6%; conditions: protein: recombinant;recombinant; tags: ;; chain copies: 8;8; label: 32P (5' by gamma-32P); four-way junction
T7 sequence 1: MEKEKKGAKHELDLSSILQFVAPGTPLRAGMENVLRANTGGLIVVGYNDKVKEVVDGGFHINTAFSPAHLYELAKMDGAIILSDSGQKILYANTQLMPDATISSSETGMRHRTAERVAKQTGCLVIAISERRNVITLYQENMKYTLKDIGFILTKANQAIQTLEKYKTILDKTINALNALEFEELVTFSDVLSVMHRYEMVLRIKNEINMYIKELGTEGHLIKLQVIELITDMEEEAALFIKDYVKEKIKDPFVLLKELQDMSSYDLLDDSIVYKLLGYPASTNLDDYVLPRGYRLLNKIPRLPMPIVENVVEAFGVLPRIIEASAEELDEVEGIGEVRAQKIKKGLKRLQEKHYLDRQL
T7 sequence 2: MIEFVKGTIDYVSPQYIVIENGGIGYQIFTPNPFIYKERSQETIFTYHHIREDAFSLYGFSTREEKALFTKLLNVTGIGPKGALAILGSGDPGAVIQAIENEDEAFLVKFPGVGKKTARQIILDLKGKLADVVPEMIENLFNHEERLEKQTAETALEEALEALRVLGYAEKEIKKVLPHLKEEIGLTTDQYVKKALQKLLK

Q: Which Kd (DisA [1]) does the source give for ssDNA (oligonucleotide not stated) here?
A: 3.3 nM

B1: dsDNA (80-bp) (dsDNA)
DNA 1: CGCAGCGACAGGAACCTCGAGGAATTCAACCACCGCTCAACTCAACTGCAGTCTGACTCGAGGTTCCTGTCGCTTGCG
DNA 2: CGCAAGCGACAGGAACCTCGAGTCTAGACTGCAGTTGAGTTGAGCGGTGGTTGAATTCCTCGAGTTCCTGTCGCTTGCG
Q: For B1, which Kd (DisA [2]; duplex, printed strands not exactly complementary (small deletions/insertion)) is on record?
A: 2.6 ± 0.3 nM

B2: HJ-J3 DNA (fixed Holliday junction) (structured_DNA)
DNA 1: CGCAAGCGACAGGAACCTCGAGAAGCTTCCGGTAGCAGCCTGAGCGGTGGTTGAATTCCTCGAGGTTCCTGTCGCTTGCG
DNA 2: CGCAGCGACAGGAACCTCGAGGAATTCAACCACCGCTCAACTCAACTGCAGTCTGACTCGAGGTTCCTGTCGCTTGCG
DNA 3: CGCAAGCGACAGGAACCTCGAGTCTAGACTGCAGTTGAGTCCTTGCTAGGACGGATCCCTCAGGTTCCTGTCGCTTGCG
DNA 4: CGCAAGCGACAGGAACCTCGAGGGATCCGTCCTAGCAAGGGGCTGCTACCGGAAGCTTCTCGAGGTTCCTGTCGCTTGCG
Q: How did the Kd (DisA [2]; four-way junction) turn out when B2 was run?
A: 3 ± 0.5 nM

Q: Does B2 bind (DisA;RuvA;RuvB)?
A: binds

Q: Does B2 bind (RuvA;RuvB)?
A: binds

Q: Does B2 bind (DisA;RecU)?
A: binds

Q: And the Kd (RuvA)?
A: 10 ± 2 nM

Q: And the Kd (RecU)?
A: 0.6 ± 0.2 nM

Q: And the Kd (DisA [3])?
A: 5.5 ± 0.3 nM

Q: Does B2 bind (DisA;RuvA)?
A: binds

B3: flayed DNA (170/173) (structured_DNA)
DNA 1: AGACGCTGCCGAATTCTGGCTTGGATCTGATGCTGTCTAGAGGCCTCCACTATGAAATCG
DNA 2: AGCTCATAGATCGATAGTCTCTAGACAGCATCAGATCCAAGCCAGAATTCGGCAGCGTCT
Q: With B3 as the molecule, how does the Kd (DisA [2]; fork 1:2, unpaired 3' end of 170 and 5' end of 173) read?
A: 3.2 ± 0.2 nM
